In series [1] the target is WDR44 334-435 (human) (UniProt Q5JSH3). As to the kind of experiment: ITC. In general terms: Isothermal titration calorimetry measures the heat released or taken up as one component is titrated into another.
For series [2], the target named is Rab11 (Homo sapiens) (UniProt P62491). The settings on record: cited from earlier work.
Series [3] deals with the molecule itself. As to the kind of experiment: SEC. In general terms: SEC sorts molecules by how far they enter the pores of the column.
Series [4] concerns the target Rab11Q70L 6-186-WDR44 334-435 complex (human) (UniProt P62491). As to the kind of experiment: ITC.

Positions count from the first letter of the chain named. Names and notes keep the numbering of the source.

Chain of WDR44 334-435 (human) (Q5JSH3 334-435): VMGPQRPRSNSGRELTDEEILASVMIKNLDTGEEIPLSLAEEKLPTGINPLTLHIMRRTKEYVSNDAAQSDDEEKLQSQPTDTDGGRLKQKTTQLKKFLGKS
Chain of Rab11 (Homo sapiens) (P62491 2-213): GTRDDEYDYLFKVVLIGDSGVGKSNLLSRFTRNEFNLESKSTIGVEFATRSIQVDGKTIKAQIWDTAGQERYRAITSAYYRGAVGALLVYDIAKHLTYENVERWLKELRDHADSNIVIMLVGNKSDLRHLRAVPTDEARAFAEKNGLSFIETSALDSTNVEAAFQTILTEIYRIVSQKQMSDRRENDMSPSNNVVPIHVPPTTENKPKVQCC

One may read the Kd as the equilibrium constant for the complex coming apart. “Rab11Q70L 6-186 (calorimetry) (from UniProt P62491 6-186) (domain or fragment)” displayed an equilibrium dissociation constant (Kd) in series [1] of 0.54 µM. Take Rabin8 (from UniProt Q96QF0): the Kd in series [2] was 40 µM.

B1: Rabin8 144-C (domain or fragment, human, UniProt Q96QF0-2 144-460, looked up)
chain: RLRSPSVLEVREKGYERLKEELAKAQRELKLKDEECERLSKVRDQLGQELEELTASLFEEAHKMVREANIKQATAEKQLKEAQGKIDVLQAEVAALKTLVLSSSPTSPTQEPLPGGKTPFKKGHTRNKSTSSAMSGSHQDLSVIQPIVKDCKEADLSLYNEFRLWKDEPTMDRTCPFLDKIYQEDIFPCLTFSKSELASAVLEAVENNTLSIEPVGLQPIRFVKASAVECGGPKKCALTGQSKSCKHRIKLGDSSNYYYISPFCRYRITSVCNFFTYIRYIQQGLVKQQDVDQMFWEVMQLRKEMSLAKLGYFKEEL
Consider B1, for which the binding result in series [3] is on record as “binds”.

B2: Rabin8 144-C S147D/S149D (domain or fragment, human, UniProt Q96QF0-2 144-460, looked up)
chain: B1 chain with S4D, S6D
Take B2: the binding result in series [3] is on record as “binds”.

B3: Rabin8 144-C S147A/S149A (domain or fragment, human, UniProt Q96QF0-2 144-460, looked up)
chain: B1 chain with S4A, S6A
For the molecule B3, the binding result in series [3] is reported as “binds”.

B4: Rabin8C (residues 270-460) (domain or fragment)
chain: NKSTSSAMSGSHQDLSVIQPIVKDCKEADLSLYNEFRLWKDEPTMDRTCPFLDKIYQEDIFPCLTFSKSELASAVLEAVENNTLSIEPVGLQPIRFVKASAVECGGPKKCALTGQSKSCKHRIKLGDSSNYYYISPFCRYRITSVCNFFTYIRYIQQGLVKQQDVDQMFWEVMQLRKEMSLAKLGYFKEEL
In turn, B4 returned a Kd in series [4] of 37.2 µM.

Values taken from paper PMC7457226 (Developmental cell, 2019).
